This is an account of results in publication PMC11452297.

In this assay the target is C-terminal domain of FusB (residues 224-324) (Pectobacterium carotovorum). The assay is described as follows: ITC; 480 uM PM1 in the syringe titrated into 20 uM FusB in the cell; VP-ITC, 25 °C, 20 mM sodium phosphate pH 7.5, 150 mM NaCl.

In general, Kd refers to the equilibrium constant for the complex coming apart. A higher Kd goes with a looser complex. In turn, Pectocin M1 (natural protein) gave an equilibrium dissociation constant (Kd) of 8.1 µM and a dH of -6 kcal/mol.
